Laboratory results from publication PMC4169507.

Target: fibronectin (UniProt P02751)
Test: bacterial adherence to fibronectin-coated 96-well plates (colony counting)
Conditions: plates coated with 25 µg/ml of fibronectin; in the presence of arabinose; parent: 100; read off a plot

In order of falling percent of parent (% of binding to Fn):
1. AafA, major subunit of AAF/II, on wild type EAEC 042 K72R  100
2. AafA, major subunit of AAF/II, on wild type EAEC 042 D14A  99
3. AafA, major subunit of AAF/II, on wild type EAEC 042 G69A  81
4. AafA, major subunit of AAF/II, on wild type EAEC 042 S73A  80
5. AafA, major subunit of AAF/II, on wild type EAEC 042 L132A  79
6. AafA, major subunit of AAF/II, on wild type EAEC 042 E57A  76
7. AafA, major subunit of AAF/II, on wild type EAEC 042 E131A  75
8. AafA, major subunit of AAF/II, on wild type EAEC 042 T38L  72
9. AafA, major subunit of AAF/II, on wild type EAEC 042 T114A  71
10. AafA, major subunit of AAF/II, on wild type EAEC 042 N88A  70
11. AafA, major subunit of AAF/II, on wild type EAEC 042 T77A  67
12. AafA, major subunit of AAF/II, on wild type EAEC 042 S30A  65
13. AafA, major subunit of AAF/II, on wild type EAEC 042 K66R  51
14. AafA, major subunit of AAF/II, on wild type EAEC 042 R23A  12
15. AafA, major subunit of AAF/II, on wild type EAEC 042 K72A  6
16. AafA, major subunit of AAF/II, on wild type EAEC 042 R44A  6
17. AafA, major subunit of AAF/II, on wild type EAEC 042 R40A  2
18. AafA, major subunit of AAF/II, on wild type EAEC 042 K66A  0

Target: fibronectin (UniProt P02751)
Test: SPR
Conditions: not given

Going from “AggAdsA triple mutant (Lys73Ala, Lys76Ala, and Lys78Ala) (domain or fragment)” to “AggBdsA (AAF/I minor subunit AggB complemented with the donor strand of AggA) (domain or fragment)”, the Kd falls from > 200 µM to 100 µM.
